B1: BAK278D6 scFv (scFv, V domains shown)
VH: EVQLVQSGAEVKKPGASVKVSCKASGYTFRNYGLSWVRQAPGQGLEWMGWISANNGDTNYGQEFQGRITMTTETSTNTAHMELRSLRSDDTAVYYCVRDSSSNWARWFFDLWGKGTMVTVSS
VL: SYVLTQPPSVSVAPGQTARIPCGGNNIGSKLVHWYQQKPGQAPVLVVYDDGDRPSGIPERFSGSNSGNTATLTISRIDAGDEADYYCQVWDTGSDPVVFGGGTKLTVL
B2: BAK1105H3 scFv (scFv, V domains shown, part only)
VH: QVQLVQSGAEVKKPGASVKVSCKASGYTFTNYGLSWVRQAPGQGLEWMGWISGLNGETLYGQEFQGRVTMTTDTSTSTAYMELRSLRSDDTAVYYCARDSSSSWARWFFDLWGRGTLVTVSS
VL: SYVLTQPPSVSVAPGKTARITCGGNIIGSKLVHWYQQKPGQAPVLVIYDDGDRPSGIPERFSGSNSGNTATLTISRVEAGDEADYYCQVWDTGSDPVVFGGGTKLTVL
modifications: scFv linker not given
B3: BAK1167F4 scFv (scFv, V domains shown, part only)
VH: QVQLVQSGAEVKKPGASVKVSCKASGYTFIDTGVSWVRQAPGQGLEWMGWISANNGDTNYGQEFQGRVTMTTDTSTSTAYMELRSLRSDDTAVYYCARDSSSSWARWFFDLWGRGTLVTVSS
VL: SYVLTQPPSVSVAPGKTARITCGGNIIGSKLVHWYQQKPGQAPVLVIYDDGDRPSGIPERFSGSNSGNTATLTISRVEAGDEADYYCQVWDTGSDPVVFGGGTKLTVL
modifications: scFv linker not given
B4: BAK1184C8 scFv (scFv, V domains shown, part only)
VH: QVQLVQSGAEVKKPGASVKVSCKASGYTFTNYGLSWVRQAPGQGLEWMGWISGSNGYTSYGQEFQGRVTMTTDTSTSTAYMELRSLRSDDTAVYYCARDSSSSWARWFFDLWGRGTLVTVSS
VL: SYVLTQPPSVSVAPGKTARITCGGNIIGSKLVHWYQQKPGQAPVLVIYDDGDRPSGIPERFSGSNSGNTATLTISRVEAGDEADYYCQVWDTGSDPVVFGGGTKLTVL
modifications: scFv linker not given
B5: BAK1185F8 scFv (scFv, V domains shown, part only)
VH: QVQLVQSGAEVKKPGASVKVSCKASGYTFTDYGLSWVRQAPGQGLEWMGWIRNIDGYTIYGQEFQGRVTMTTDTSTSTAYMELRSLRSDDTAVYYCARDSSSSWARWFFDLWGRGTLVTVSS
VL: SYVLTQPPSVSVAPGKTARITCGGNIIGSKLVHWYQQKPGQAPVLVIYDDGDRPSGIPERFSGSNSGNTATLTISRVEAGDEADYYCQVWDTGSDPVVFGGGTKLTVL
modifications: scFv linker not given
B6: BAK1111D10 scFv (scFv, V domains shown, part only)
VH: QVQLVQSGAEVKKPGASVKVSCKASGYTFTNYGLSWVRQAPGQGLEWMGWIATPDGQTSYGQEFQGRVTMTTDTSTSTAYMELRSLRSDDTAVYYCARDSNSSWARWFFDLWGRGTLVTVSS
VL: SYVLTQPPSVSVAPGKTARITCGGNIIGSKLVHWYQQKPGQAPVLVIYDDGDRPSGIPERFSGSNSGNTATLTISRVEAGDEADYYCQVWDTGSDPVVFGGGTKLTVL
modifications: scFv linker not given
B7: BAK1187B4 scFv (scFv, part only; not given: Linker, part only)
scFv, part: QVQLVQSGAEVKKPGASVKVSCKASGYTFTNYGLSWVRQAPGQGLEWMGWIDDDSGTTIYGQEFQGRVTMTTDTSTSTAYMELRSLRSDDTAVYYCARDSSSSWARWFFDLWGRGTLVTVSSSYVLTQPPSVSVAPGKTARITCGGNIIGSKLVHWYQQKPGQAPVLVIYDDGDRPSGIPERFSGSNSGNTATLTISRVEAGDEADYYCQVWDTGSDPVVFGGGTKLTVL
B8: BAK1185E1 scFv (scFv, part only; not given: Linker, part only)
scFv, part: QVQLVQSGAEVKKPGASVKVSCKASGYTFTNYGLSWVRQAPGQGLEWMGWINDATGDTQYGQEFQGRVTMTTDTSTSTAYMELRSLRSDDTAVYYCARDSSSSWARWFFDLWGRGTLVTVSSSYVLTQPPSVSVAPGKTARITCGGNIIGSKLVHWYQQKPGQAPVLVIYDDGDRPSGIPERFSGSNSGNTATLTISRVEAGDEADYYCQVWDTGSDPVVFGGGTKLTVL
B9: BAK1166G2 scFv (scFv, part only; not given: Linker, part only)
scFv, part: QVQLVQSGAEVKKPGASVKVSCKASGYTFANTGISWVRQAPGQGLEWMGWISANNGDTNYGQEFQGRVTMTTDTSTSTAYMELRSLRSDDTAVYYCARDSSSSWARWFFDLWGRGTLVTVSSSYVLTQPPSVSVAPGKTARITCGGNIIGSKLVHWYQQKPGQAPVLVIYDDGDRPSGIPERFSGSNSGNTATLTISRVEAGDEADYYCQVWDTGSDPVVFGGGTKLTVL
B10: BAK1167F2 scFv (scFv, part only; not given: Linker, part only)
scFv, part: QVQLVQSGAEVKKPGASVKVSCKASGYTFEQTGVSWVRQAPGQGLEWMGWISANNGDTNYGQEFQGRVTMTTDTSTSTAYMELRSLRSDDTAVYYCARDSSSSWARWFFDLWGRGTLVTVSSSYVLTQPPSVSVAPGKTARITCGGNIIGSKLVHWYQQKPGQAPVLVIYDDGDRPSGIPERFSGSNSGNTATLTISRVEAGDEADYYCQVWDTGSDPVVFGGGTKLTVL

These binders were tested against human IL-13 variant (Q130R), baculovirus expressed, carboxyl terminus affinity tag (human) (UniProt P35225) (assay: not given).

IC50 (read off the curve); TF-1 cell proliferation, 25 ng/ml human IL-13 variant (Q130R), 80000 pM:
B1

These binders were tested against human IL-13 (human) (UniProt P35225) (assay: cell-based or functional assay).

IC50, TF-1 cell proliferation assay, 100 pM:
B7

IC50, TF-1 cell proliferation assay, 200 pM:
B2, B3, B4, B5, B6, B8, B9, B10

Reference: patent publication US20070128192A1
